# PMC4619592
# Tests used:
# [1] = molecular target: Grouper nervous necrosis virus capsid protein, full length (338 residues) (orange-spotted grouper nervous necrosis virus (OSGNNV)); assay: SDS-PAGE; oligomerization of three CPs in solution, bands compared to protein standards
# [2] = molecular target: N-ARM deletion mutant of GNNV capsid protein (residues 35-338) (orange-spotted grouper nervous necrosis virus (OSGNNV)); assay: as above
# [3] = molecular target: Truncated P-domain of GNNV capsid protein (residues 214-338) (orange-spotted grouper nervous necrosis virus (OSGNNV)); assay: SEC; purified P-domain on Superdex 75 10/300 GL in the presence of Ca2+, against protein standards
# [4] = molecular target: Truncated P-domain of GNNV capsid protein (residues 214-338) (orange-spotted grouper nervous necrosis virus (OSGNNV)); assay: crystal structure; truncated P-domain (214-338), 1.2 Å; crystals from 0.2 M Ca acetate, 0.1 M MES (pH 6.5), 10% PEG8000
# [5] = molecular target: delta-P-domain mutant of GNNV capsid protein (residues 35-217) (orange-spotted grouper nervous necrosis virus (OSGNNV)); assay: crystal structure; T = 1 delta-P-domain mutant (35-217), 3.1 Å; crystals from 0.2 M MgCl2, 0.1 M HEPES-Na (pH 7.5), 30% PEG400
# [6] = molecular target: delta-P-domain mutant of GNNV capsid protein (residues 35-217) (orange-spotted grouper nervous necrosis virus (OSGNNV)); assay: SDS-PAGE; oligomerization of three CPs in solution, bands compared to protein standards
substance,measurement,setting,value
"Grouper nervous necrosis virus capsid protein, full length (338 residues) (natural protein)",stoichiometry N,[1],3
N-ARM deletion mutant of GNNV capsid protein (residues 35-338) (domain or fragment),stoichiometry N,[2],3
Truncated P-domain of GNNV capsid protein (residues 214-338) (domain or fragment),stoichiometry N,[3],3
same,stoichiometry N,[4],3
delta-P-domain mutant of GNNV capsid protein (residues 35-217) (domain or fragment),stoichiometry N,[5],60
same,stoichiometry N,[6],2
